Measurements from patent publication US12534541B2, “Anti-PTK7 antibody and uses thereof” (MABCARE THERAPEUTICS, priority 2023, dated 2026).
Like-named read-outs stand apart in the source and are kept apart here.

Key:
[1] = Size exclusion chromatography (SEC) for the degree of aggregation; format: physicochemical; details: integral analysis, product after preparation
Protocol: (§1) Activated charcoal powder (30 mg of powder per ml of liquid) was then added to the collection solution, which was suspended for 2 h at room temperature, centrifuged, and sterilized using a 0.22 μm filter membrane, and the activated charcoal particles were removed at the same time. The resulting product was calculated by UV for its concentration and DAR value, detected by hydrophobic chromatography (HIC) for product homogeneity, and detected by size exclusion chromatography (SEC) for the degree of aggregation. The products were placed in a refrigerator at −80° C. for cryopreservation.
as §1, with “At the end of the reaction, the coupling reaction mixture was immediately desalted and exchanged with histidine-acetic acid/NaCl buffer using a desalting column. Activated” for “Activated”, “product was” for “products were”, “cryopreservation. […]” for “cryopreservation.”

OVCAR-3 cells = assay: In vivo anti-tumor activity against human ovarian cancer cell line OVCAR-3; details: OVCAR-3 in NCG mice, i.v. 3 mg/kg or 5 mg/kg, 1 dose, vs negative control
Protocol: 6-week-old NCG mice, female, weighing 18-21 g, were purchased from Beijing Vital River Laboratory Animal Technology Co., Ltd. The mice were subcutaneously inoculated with OVCAR-3 cells (Human Ovarian Cancer Cells, ATCC, Catalog No. HTB-161). When the average tumor volume reached 150 mm^3, the antibody-drug conjugates Ab13-T1000-exatecan and h6M24-T1000-exatecan as prepared in Example 5 and the antibody-drug conjugate Ab13-vc0101 and h6M24-vc0101 as prepared in Example 8 were administered intravenously at a dose of 3 mg/kg or 5 mg/kg, respectively, and a negative control Vehicle group was set and administered intravenously with PBS at an equal dose, once a week for a total of 1 dose. After dosing, the tumor volume was measured twice a week using a vernier caliper and calculated according to the following formula: TV=(length*width^2)/2.

[2] = test system: triple-negative breast cancer PDX LD1-2009-361918; format: in vivo; details: NU/NU mice, i.v. 5 mg/kg, once a week, 2 doses, vs negative control
Protocol: 6-week-old NU/NU mice, female, weighing 18-21 g, were purchased from Beijing Vital River Laboratory Animal Technology Co., Ltd. The mice were subcutaneously inoculated with triple-negative breast cancer tumor mass (specimen no. 361918, obtained from Xi'an LIDE Biotech Co. Ltd.). […] After dosing, the tumor volume was measured twice a week using a vernier caliper and calculated according to the following formula: TV=(length*width^2)/2.

[3] = test system: lung squamous cell carcinoma PDX LD1-0025-200615; assay: In vivo anti-tumor activity against human lung squamous cell carcinoma PDX LD1-0025-200615; details: NU/NU mice, i.v. 5 mg/kg, once a week, 2 doses, vs negative control
Protocol: (§2) 6-week-old NU/NU mice, female, weighing 18-21 g, were purchased from Beijing Vital River Laboratory Animal Technology Co., Ltd. The mice were subcutaneously inoculated with lung squamous cell carcinoma tumor mass (specimen no. 200615, obtained from Xi'an LIDE Biotech Co. Ltd.). When the average tumor volume reached 150 mm^3, the antibody-drug conjugate Ab13-T1000-exatecan as prepared in Example 5 was administered intravenously at a dose of 10 mg/kg, the antibody-drug conjugate h6M24-vc0101 as prepared in Example 8 was administered intravenously at a dose of 5 mg/kg, and a negative control Vehicle group was set and administered intravenously with PBS at an equal dose, once a week for a total of 2 doses. After dosing, the tumor volume was measured twice a week using a vernier caliper and calculated according to the following formula: TV=(length*width^2)/2.

[4] = test system: esophageal squamous cell carcinoma PDX LD1-2015-361318; assay: In vivo anti-tumor activity against human esophageal squamous cell carcinoma PDX LD1-2015-361318; details: NU/NU mice, i.v. 5 mg/kg, once a week, 2 doses, vs negative control
Protocol: as §2, with “esophageal” for “lung”, “361318,” for “200615,”

[5] = test system: head and neck squamous cell carcinoma PDX LD1-0023-200615; assay: In vivo anti-tumor activity against human head and neck squamous cell carcinoma PDX LD1-0023-200615; details: NU/NU mice, i.v. 5 mg/kg, once a week, 2 doses, vs negative control
Protocol: as §2, with “head and neck” for “lung”

[6] = test system: colorectal cancer PDX LD1-2038-361980; assay: In vivo anti-tumor activity against human colorectal cancer PDX LD1-2038-361980; details: NU/NU mice, i.v. 5 mg/kg, once a week, 2 doses, vs negative control
Protocol: as §2, with “colorectal cancer” for “lung squamous cell carcinoma”, “361980,” for “200615,”

[7] = test system: refractory ovarian cancer expressing PTK7, triple-negative breast cancer, and NSCLC; details: cited from earlier work

B1: h6M24-vc0101: control drug: h6M24 (cofetuzumab) linked to Aur0101 via mc-VC-PAB linker, DAR about 4 (conjugate, chains of the INN, looked up)
VH: QVQLVQSGPEVKKPGASVKVSCKASGYTFTDYAVHWVRQAPGKRLEWIGVISTYNDYTYNNQDFKGRVTMTRDTSASTAYMELSRLRSEDTAVYYCARGNSYFYALDYWGQGTSVTVSS
VL: EIVLTQSPATLSLSPGERATLSCRASESVDSYGKSFMHWYQQKPGQAPRLLIYRASNLESGIPARFSGSGSGTDFTLTISSLEPEDFAVYYCQQSNEDPWTFGGGTKLEIK
modifications: Aur0101 via mc-VC-PAB linker, DAR 4
In the case of B1, the percentage of aggregates [1] is reported as 1.39%, the “tumor growth inhibition (tumor volume over time)” value (OVCAR-3 cells) is reported as “less effective in inhibiting tumor growth” and the “tumor growth inhibition (tumor volume over time)” value [2] is reported as “does not produce any tumor growth inhibitory effect”. The “tumor growth inhibition (tumor volume over time)” value [3] was “partially inhibit tumor growth”, the “tumor growth inhibition (tumor volume over time)” value [4] was “partially inhibit tumor growth” and the “tumor growth inhibition (tumor volume over time)” value [5] was “significantly inhibit tumor growth”. For the same molecule, the “tumor growth inhibition (tumor volume over time)” value [6] was “does not produce any tumor growth inhibitory effect”, the dose-limiting toxicity ([7]; highest dose assessed every 3 weeks) was “Two patients experienced a dose-limiting toxicity (grade 3 headache and fatigue)” and the “objective response rate (ORR)” value ([7]; patients with NSCLC (6/31 patients)) was 19%. For the same molecule, the “objective response rate (ORR)” value ([7]; patients with refractory ovarian cancer expressing PTK7 (17/63 patients)) was 27% and the “objective response rate (ORR)” value ([7]; patients with triple-negative breast cancer (6/29 patients)) was 21%.
